Data on three substances can be found in paper PMC7279355, “Preparation of Biphenyl-Conjugated Bromotyrosine for Inhibition of PD-1/PD-L1 Immune Checkpoint Interactions” (International Journal of Molecular Sciences, 2020).

The target in assay [1] is PD-L1 (Homo sapiens) (UniProt Q9NZQ7). Particulars: cited from earlier work.
The target of assay [2] is PD-L1, histidine (His)-tagged (UniProt Q9NZQ7). In words: AlphaScreen or HTRF; AlphaLISA kit AL356 HV/C/F (PerkinElmer), competition: biotin-conjugated PD-1 on streptavidin-coated donor beads, His-tagged PD-L1 on anti-His acceptor beads; 2 uL each of inhibitor dilution, PD-L1 (25 nM), PD-1 (25 nM) and the two beads in 10 uL; 25 °C, 90 min; IC50 from sigmoidal fit.
Chain of PD-L1, histidine (His)-tagged (Q9NZQ7 19-238): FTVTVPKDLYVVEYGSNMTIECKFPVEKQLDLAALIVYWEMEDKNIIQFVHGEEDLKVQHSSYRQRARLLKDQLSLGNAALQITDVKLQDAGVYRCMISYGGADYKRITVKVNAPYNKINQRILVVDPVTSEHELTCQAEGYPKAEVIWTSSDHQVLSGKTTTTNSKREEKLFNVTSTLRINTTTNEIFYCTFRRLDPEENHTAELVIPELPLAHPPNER

Chain of PD-L1 (Homo sapiens) (Q9NZQ7 19-238): as above
Chain of PD-1 (Q15116 25-170): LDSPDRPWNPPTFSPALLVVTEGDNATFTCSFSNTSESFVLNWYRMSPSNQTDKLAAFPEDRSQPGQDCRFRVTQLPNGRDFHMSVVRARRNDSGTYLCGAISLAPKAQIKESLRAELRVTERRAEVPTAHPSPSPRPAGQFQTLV

Regarding PD-1 (from UniProt Q15116), the equilibrium dissociation constant (Kd) in assay [1] was 6.4 µM. With CERXNKM (peptide), the IC50 in assay [2] came out at 308 µM.

FWRXNNI (peptide) registered a half-inhibitory concentration (IC50) in assay [2] of 312 µM.
